Reference: the domain aggregation screens of Martell et al. (2025)

Assay: soluble fraction after stress (log2 fold change); higher = more stays soluble; pooled small domains, quantitative proteomics
Details: stress: 50 degC
How it was run: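 After stress at 50°C, the amount of each protein still soluble was measured. This was done on pooled custom libraries of small protein domains, using high-throughput quantitative proteomics. The figure given is a base-two log fold change and stands for aggregation propensity, with higher values meaning more protein stays in solution.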

Row | Sequence | soluble fraction (log2)
1 | HMVPAMGSLTLIKGGVNLRNAPGGLTIAQLDRGLVLSYTKFVQKDGYTWYLVNSPKGTGYVRSDVVQLGS | -0.251
2 | HMTGTVKVNSLNVYKSASLDSEVKDTLVLNTKVTIAENGQVTDGIYVWGRLQSGEGYVQMNNLTL | -0.687
3 | HMEAPWQEIKRQVMDGLDMSREFTDEELRERIALAVRSYSKEKLLSLKVRESYEEQIFNSFR | -0.239
4 | HMDTVSYMSDAVKAGAVTPSHDEEARARYLLYAGFGAILLFLRYEASEPGDIESAIREFMERYGPVTAELY | 0.243
5 | HMNIYIEFGRRLAFIRQNSKLSQSQIAQKLNIAQSTYAGYEKGVRKIPLEIIVQLSKILNISPTILILG | -3.91
6 | HMVKPQANTIYKEYIKYRANLQNKNEFLSFSEYAKQKHNLEQMSEIMVDANLKEEMLETLKEMS | 0.0362
7 | HMEQQVDYTQFIQDVRQGQIREVDVDRNGVINGIKRSGENFVTVIPGGYDRDLINDLVKQGVNATGEL | 0.107
8 | HMKRDEYIAQLKKYLKRLPKKEYDSAIEYFTEYFDEAGPERELEVIQELGQPKEAAKEMLLQLLNE | 0.0905
9 | HMSDKEDIDKYLLTYGDLLFNRTNSSEWVGKTAIYRGEVSAIYAGYLIRIRSFLDAEYLNSVMNSKYA | -0.235
10 | HMGQPRPLTAEDFDFLSDDEIAEMRKALSNGEMLRLRELIAQIGEKRPFLAERLLVLAKQYNYEDLSRLLE | -0.374
11 | HMATMSIDERILEIRSRAGLTQQEMADRLFVTRQAVSRWERGETVPGIDTLRLIAEAFDVRVDQILEL | -1.69
12 | HMSSVDLLSERERQVLARISRGMSNEEIAAELAITPRTVRNHLANIYGKIDVHSRAEAVVWARERGIT | 0.0251
13 | HMPSRPIQVASFSKEDNAKRAAEALAKIGVTATPQKSEKAGKAVWGVVVTGDDAMLQKIKDAGFADAYFL | 0.0921
14 | HMGGTAGKINAIGVNFRTGPSTSYTSLGLLGKDTAVTVIGTSGKWYKVTIVSTGKTGYVYATYVNLTP | -1.81
15 | HMDIAYFSNAELNDAFIQFLNMRQEAGKQLNGYQIQILTEKLERVADTDEDRISAVKNAIAGGWSNFYPPK | -0.272
16 | HMTRDGMTKEAFDSLLEDIMNILLDNGLKATTMGSIAKSLKMSKRTLYEIFSSKSQMVEEAIIASHTKMM | 0.15
17 | HMLDLPVKTINGKQYYYYTVKKGDTVYSLITRFGITRSDLVESNPAAADVLKTGDTLYFAVDKFG | -0.0825
18 | HMQLSASQQQILNHAAVNTDGKLVWFPETLKGGARKKVLDSLFSRALITTDGTHWFVAAEGYEALGIP | -0.877
19 | HMNMPYGTVKWFNDAKGFGFIAPEDGSADVFVHFSAINSKGFRSLQEGQRVSYEVTTGPKGAQAAGVTPVT | -0.331

Row | Sequence | soluble fraction (log2)
20 | HMLEQISDPEVLSKLADEVLSQQEKMVMDYRKGKTAAFQGLMGQMMKKTKGKGNPAKIQEILAQKL | 0.193
21 | HMDEDTWKLYKRAYKKYYARYMKGNMSEEAFKTWAAQAARDRDAAIEQVKAALDENLKAQVIERLKEELNR | -0.407
22 | HMSKEKQILQLLQHGYSQRRIADTLSVSRNTVAKVAKAAIEHPVSSDSLDSIDELELHQKLFPEEVLI | -0.339
23 | HMRVLEYTADGSRLDVLLSQDGVLSRSRAAELIKGGAVTVDGRAEGKPSAKPAPGALVRVEVPE | -0.01
24 | HMRDTDAEVTYKLNEPFKTMGSVSVEGKVLEFAGSKWFARAAEFASNTEVYPLAKNRVRLTFTFHGLTAP | 0.105
25 | HMDYGSLQRAIENQLEVRNYQKPKKFLTKIIQLMETIMVRHGVMVVGLTGTGKTTVIETLSRSMEQ | -0.302
26 | HMSALIGAHTLERIDSRDFEGVVMAWLPKRDGYDSLYKIYHIEDGDFEELDDREVQAAISLFIEGT | -0.431
27 | HMKANIGDQVFTQLKDQIINGEWRPGDRIPSEAQLIQLFGVSRGTVRQAVQKLAGEGLIVTRHGEGSFVQG | 0.096
28 | HMGGGVERLTPRQREVLGYMAEGRSNSWIAGAIGFSEKAVVQHTSKIYDALGLAVDADDHRRVLAVLRYLT | -1.44
29 | HMKNPLIIGMTKDKIIELIGMPDNIKFLDSSLSKSEVWNYDKFGKKLYIKDEKLYQIENIEE | 0.016
30 | HMQMPLTMATMGEVNKIVKVGGNEETRRFLANLGFVAGAEVVVLSKIGGNVIVNVKDSRVAVNEDMARHIM | -0.997
31 | HMHLTEAPLIKITYFEADQKKSGGQYITIINHLKKINEYENLLVLENGVKINIDDIYELESV | -0.132
32 | HMNFSKEYILVHSYKEIDILDALIVKYEATLVNREFDLFINSYIKINEDYAKLFRDEIISKTSGSMSIKEL | -0.825
33 | HMYKMKDRIKKIMEMQRTTQQDFADQLKIAPATLSSIFTGRTRPTLAIVDAIKSRFPQISTDWLMFGKGDM | -0.219
34 | HMETYTVSSKDGYANVRNEATVNSDLIAELKNGTLVTKFKEKGEWYYIEFEREDGTPFDYGYIHKSQLK | 0.181
35 | HMILNPADEEKMNLINFELQQRGLEINDKEMQYIFTHHSRDLNSLLNLAEKLDEISHQEKKSISINLIKKI | -0.0218
36 | HMSGEDYLERILMLKEKHGNVRAIDIANSMNFSKPSVSIALHKLSENGYVVIQNNGAIELTEKGLEVAT | -0.315
37 | HMVEMPEVGVKVRIEVESHNGSTNFEGIVLHPASKGHLTLKLINGYNASYLIEEIRNLEIIDSS | -0.271
38 | HMIENPGQTFERIAGKITRTLRTGPLRIQQLDLLFSESGEQVMDVLRAMAENGEILIKDDTIQWNGHN | -0.0388
